We go through one substance from article doi:10.1101/2023.12.15.571702.

The test addresses piperazate synthase PipS, C-terminal His6-tagged (holo-PipS) (Streptomyces griseus subsp. griseus NRRL F-5144). Put plainly: crystal structure.

“piperazate synthase PipS, C-terminal His6-tagged (holo-PipS) (enzyme)” had a stoichiometry N of 2.

Broadly, the stoichiometry N is the number of molecules, sites or subunits per partner or assembly.
